# From US20170355766A1 (Xencor, published 2017)
# T1: human FcγRIIb receptor protein (R&D Systems) (human, UniProt P31994 46-217)
# T1 construct: Analyte injected over antibodies captured on a protein A/G chip (Biacore); also called CD32b
# T1 sequence (looked up): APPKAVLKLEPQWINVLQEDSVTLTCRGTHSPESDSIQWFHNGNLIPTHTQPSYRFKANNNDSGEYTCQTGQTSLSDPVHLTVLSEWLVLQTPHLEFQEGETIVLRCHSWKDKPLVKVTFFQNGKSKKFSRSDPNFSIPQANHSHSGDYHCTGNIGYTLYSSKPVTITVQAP
# T2: FcγRIIaR (human, UniProt P12318)
# T2 construct: recombinant receptor protein with 6xHis and GST tags; also called R131 FcγRIIa
# T2 sequence (receptor, looked up): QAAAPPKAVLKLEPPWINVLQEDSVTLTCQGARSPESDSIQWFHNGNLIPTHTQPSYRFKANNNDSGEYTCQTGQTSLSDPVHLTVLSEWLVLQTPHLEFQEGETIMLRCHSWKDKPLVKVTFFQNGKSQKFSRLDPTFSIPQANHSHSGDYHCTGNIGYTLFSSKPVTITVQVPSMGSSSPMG
# T3: human H131 FcγRIIa receptor protein (6xHis and GST tags) (human, UniProt P12318 34-217, limits assumed)
# T3 construct: also called HIIa
# T3 sequence (looked up): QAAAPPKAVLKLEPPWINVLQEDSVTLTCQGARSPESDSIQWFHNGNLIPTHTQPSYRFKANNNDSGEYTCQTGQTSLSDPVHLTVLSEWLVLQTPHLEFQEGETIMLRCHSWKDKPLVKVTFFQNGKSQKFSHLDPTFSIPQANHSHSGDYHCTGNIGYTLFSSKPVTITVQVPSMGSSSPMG
# Key:
# Assay in all cases: SPR (Biacore)
# [1] = molecular target: T1, human FcγRIIb receptor protein (R&D …)
# [2] = molecular target: T4, human FcγRI receptor protein (R&D Systems) (human, UniProt P12314 16-288)
# T4 construct: also called CD64
# FcγRIIaR = molecular target: T2, FcγRIIaR
# [3] = molecular target: T5, human V158 FcγRIIIa receptor protein (6xHis and GST tags) (human, UniProt P08637 17-208, limits assumed)
# T5 construct: also called VIIIa
# [4] = molecular target: T3, human H131 FcγRIIa receptor protein …
# T4 sequence (P12314 16-288 limits assumed): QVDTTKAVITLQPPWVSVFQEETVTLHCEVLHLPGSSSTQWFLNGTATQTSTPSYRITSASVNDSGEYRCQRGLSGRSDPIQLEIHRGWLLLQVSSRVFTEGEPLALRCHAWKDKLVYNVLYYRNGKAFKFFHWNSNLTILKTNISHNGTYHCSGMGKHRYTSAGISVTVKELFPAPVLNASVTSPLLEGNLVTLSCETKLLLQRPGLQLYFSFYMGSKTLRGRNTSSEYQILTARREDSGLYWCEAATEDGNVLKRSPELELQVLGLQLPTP
# T5 sequence (P08637 17-208 F176V limits assumed): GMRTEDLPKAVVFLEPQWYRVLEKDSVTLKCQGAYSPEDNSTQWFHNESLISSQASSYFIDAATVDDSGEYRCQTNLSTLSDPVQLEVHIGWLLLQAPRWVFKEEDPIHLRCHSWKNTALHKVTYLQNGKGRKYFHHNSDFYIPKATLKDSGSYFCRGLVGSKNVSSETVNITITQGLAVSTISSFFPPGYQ
Fold FcγRIIb [1] [fold],Fold FcγRI [2] [fold],Fold FcγRIIaR (FcγRIIaR) [fold],Fold FcγRIIIaV [3] [fold],Fold FcγRIIaH [4] [fold],binding result [3],Binder
1.33,2.06,1.6,0.398,0.733,–,"A327D (antibody, human IgG1, kappa, HuAM4G7 IgG1 Fc variant) heavy: not shown light: DIVMTQSPATLSLSPGERATLSCRSSKSLQNVNGNTYLYWFQQKPGQSPQLLIYRMSNLNSGVPDRFSGSGSGTEFTLTISSLEPEDFAVYYCMQHLEYPITFGAGTKLEIKRTVAAPSVFIFPPSDEQLKSGTASVVCLLNNFYPREAKVQWKVDNALQSGNSQESVTEQDSKDSTYSLSSTLTLSKADYEKHKVYACEVTHQGLSSPVTKSFNRGEC"
–,0.0157,0.35,–,0.486,no binding,"G236T (antibody, human IgG1, kappa, HuAM4G7 IgG1 Fc variant) heavy: not shown light: DIVMTQSPATLSLSPGERATLSCRSSKSLQNVNGNTYLYWFQQKPGQSPQLLIYRMSNLNSGVPDRFSGSGSGTEFTLTISSLEPEDFAVYYCMQHLEYPITFGAGTKLEIKRTVAAPSVFIFPPSDEQLKSGTASVVCLLNNFYPREAKVQWKVDNALQSGNSQESVTEQDSKDSTYSLSSTLTLSKADYEKHKVYACEVTHQGLSSPVTKSFNRGEC"
43.1,0.224,122,–,–,no binding,"S267E/L328Y (antibody, human IgG1, kappa, HuAM4G7 IgG1 Fc variant) heavy: not shown light: DIVMTQSPATLSLSPGERATLSCRSSKSLQNVNGNTYLYWFQQKPGQSPQLLIYRMSNLNSGVPDRFSGSGSGTEFTLTISSLEPEDFAVYYCMQHLEYPITFGAGTKLEIKRTVAAPSVFIFPPSDEQLKSGTASVVCLLNNFYPREAKVQWKVDNALQSGNSQESVTEQDSKDSTYSLSSTLTLSKADYEKHKVYACEVTHQGLSSPVTKSFNRGEC"
1.02,0.0268,2.33,–,3.76,–,"G236S (antibody, human IgG1, kappa, HuAM4G7 IgG1 Fc variant) heavy: not shown light: DIVMTQSPATLSLSPGERATLSCRSSKSLQNVNGNTYLYWFQQKPGQSPQLLIYRMSNLNSGVPDRFSGSGSGTEFTLTISSLEPEDFAVYYCMQHLEYPITFGAGTKLEIKRTVAAPSVFIFPPSDEQLKSGTASVVCLLNNFYPREAKVQWKVDNALQSGNSQESVTEQDSKDSTYSLSSTLTLSKADYEKHKVYACEVTHQGLSSPVTKSFNRGEC"
344,0.991,253,–,–,–,"S267E/H268E/L328F (antibody, human IgG1, kappa, HuAM4G7 IgG1 Fc variant) heavy: EVQLVESGGGLVKPGGSLKLSCAASGYTFTSYVMHWVRQAPGKGLEWIGYINPYNDGTKYNEKFQGRVTISSDKSISTAYMELSSLRSEDTAMYYCARGTYYYGTRVFDYWGQGTLVTVSSASTKGPSVFPLAPSSKSTSGGTAALGCLVKDYFPEPVTVSWNSGALTSGVHTFPAVLQSSGLYSLSSVVTVPSSSLGTQTYICNVNHKPSNTKVDKKVEPKSCDKTHTCPPCPAPELLGGPSVFLFPPKPKDTLMISRTPEVTCVVVDVEEEDPEVKFNWYVDGVEVHNAKTKPREEQYNSTYRVVSVLTVLHQDWLNGKEYKCKVSNKAFPAPIEKTISKAKGQPREPQVYTLPPSREEMTKNQVSLTCLVKGFYPSDIAVEWESNGQPENNYKTTPPVLDSDGSFFLYSKLTVDKSRWQQGNVFSCSVMHEALHNHYTQKSLSLSPGK light: DIVMTQSPATLSLSPGERATLSCRSSKSLQNVNGNTYLYWFQQKPGQSPQLLIYRMSNLNSGVPDRFSGSGSGTEFTLTISSLEPEDFAVYYCMQHLEYPITFGAGTKLEIKRTVAAPSVFIFPPSDEQLKSGTASVVCLLNNFYPREAKVQWKVDNALQSGNSQESVTEQDSKDSTYSLSSTLTLSKADYEKHKVYACEVTHQGLSSPVTKSFNRGEC"
40.5,0.101,61.5,–,–,no binding,"G237N/S267E (antibody, human IgG1, kappa, HuAM4G7 IgG1 Fc variant) heavy: not shown light: DIVMTQSPATLSLSPGERATLSCRSSKSLQNVNGNTYLYWFQQKPGQSPQLLIYRMSNLNSGVPDRFSGSGSGTEFTLTISSLEPEDFAVYYCMQHLEYPITFGAGTKLEIKRTVAAPSVFIFPPSDEQLKSGTASVVCLLNNFYPREAKVQWKVDNALQSGNSQESVTEQDSKDSTYSLSSTLTLSKADYEKHKVYACEVTHQGLSSPVTKSFNRGEC"
111,23.2,120,3.74,–,–,"anti-CD19 antibody HuAM4G7 IgG1 Fc variant S239D/S267E (antibody, Positions are EU numbers, not positions on the UniProt entry; copies: 2 + 2) heavy: not shown light: DIVMTQSPATLSLSPGERATLSCRSSKSLQNVNGNTYLYWFQQKPGQSPQLLIYRMSNLNSGVPDRFSGSGSGTEFTLTISSLEPEDFAVYYCMQHLEYPITFGAGTKLEIKRTVAAPSVFIFPPSDEQLKSGTASVVCLLNNFYPREAKVQWKVDNALQSGNSQESVTEQDSKDSTYSLSSTLTLSKADYEKHKVYACEVTHQGLSSPVTKSFNRGEC"
4.45,2.11,8.99,1.51,–,–,"S267D (antibody, human IgG1, kappa, HuAM4G7 IgG1 Fc variant) heavy: not shown light: DIVMTQSPATLSLSPGERATLSCRSSKSLQNVNGNTYLYWFQQKPGQSPQLLIYRMSNLNSGVPDRFSGSGSGTEFTLTISSLEPEDFAVYYCMQHLEYPITFGAGTKLEIKRTVAAPSVFIFPPSDEQLKSGTASVVCLLNNFYPREAKVQWKVDNALQSGNSQESVTEQDSKDSTYSLSSTLTLSKADYEKHKVYACEVTHQGLSSPVTKSFNRGEC"
428,1.45,416,0.216,–,–,"S239D/S267E/L328F (antibody, human IgG1, kappa, HuAM4G7 IgG1 Fc variant) heavy: EVQLVESGGGLVKPGGSLKLSCAASGYTFTSYVMHWVRQAPGKGLEWIGYINPYNDGTKYNEKFQGRVTISSDKSISTAYMELSSLRSEDTAMYYCARGTYYYGTRVFDYWGQGTLVTVSSASTKGPSVFPLAPSSKSTSGGTAALGCLVKDYFPEPVTVSWNSGALTSGVHTFPAVLQSSGLYSLSSVVTVPSSSLGTQTYICNVNHKPSNTKVDKKVEPKSCDKTHTCPPCPAPELLGGPDVFLFPPKPKDTLMISRTPEVTCVVVDVEHEDPEVKFNWYVDGVEVHNAKTKPREEQYNSTYRVVSVLTVLHQDWLNGKEYKCKVSNKAFPAPIEKTISKAKGQPREPQVYTLPPSREEMTKNQVSLTCLVKGFYPSDIAVEWESNGQPENNYKTTPPVLDSDGSFFLYSKLTVDKSRWQQGNVFSCSVMHEALHNHYTQKSLSLSPGK light: DIVMTQSPATLSLSPGERATLSCRSSKSLQNVNGNTYLYWFQQKPGQSPQLLIYRMSNLNSGVPDRFSGSGSGTEFTLTISSLEPEDFAVYYCMQHLEYPITFGAGTKLEIKRTVAAPSVFIFPPSDEQLKSGTASVVCLLNNFYPREAKVQWKVDNALQSGNSQESVTEQDSKDSTYSLSSTLTLSKADYEKHKVYACEVTHQGLSSPVTKSFNRGEC"
1.91,1.25,3.13,0.547,–,–,"V266M (antibody, human IgG1, kappa, HuAM4G7 IgG1 Fc variant) heavy: not shown light: DIVMTQSPATLSLSPGERATLSCRSSKSLQNVNGNTYLYWFQQKPGQSPQLLIYRMSNLNSGVPDRFSGSGSGTEFTLTISSLEPEDFAVYYCMQHLEYPITFGAGTKLEIKRTVAAPSVFIFPPSDEQLKSGTASVVCLLNNFYPREAKVQWKVDNALQSGNSQESVTEQDSKDSTYSLSSTLTLSKADYEKHKVYACEVTHQGLSSPVTKSFNRGEC"
21.7,0.0286,12.7,0.14,–,–,"L234D/S267E (antibody, human IgG1, kappa, HuAM4G7 IgG1 Fc variant) heavy: not shown light: DIVMTQSPATLSLSPGERATLSCRSSKSLQNVNGNTYLYWFQQKPGQSPQLLIYRMSNLNSGVPDRFSGSGSGTEFTLTISSLEPEDFAVYYCMQHLEYPITFGAGTKLEIKRTVAAPSVFIFPPSDEQLKSGTASVVCLLNNFYPREAKVQWKVDNALQSGNSQESVTEQDSKDSTYSLSSTLTLSKADYEKHKVYACEVTHQGLSSPVTKSFNRGEC"
0.803,1.65,0.688,3.49,–,–,"S239E (antibody, human IgG1, kappa, HuAM4G7 IgG1 Fc variant) heavy: not shown light: DIVMTQSPATLSLSPGERATLSCRSSKSLQNVNGNTYLYWFQQKPGQSPQLLIYRMSNLNSGVPDRFSGSGSGTEFTLTISSLEPEDFAVYYCMQHLEYPITFGAGTKLEIKRTVAAPSVFIFPPSDEQLKSGTASVVCLLNNFYPREAKVQWKVDNALQSGNSQESVTEQDSKDSTYSLSSTLTLSKADYEKHKVYACEVTHQGLSSPVTKSFNRGEC"
3.6,1.15,4.29,0.952,–,–,"S267A (antibody, human IgG1, kappa, HuAM4G7 IgG1 Fc variant) heavy: not shown light: DIVMTQSPATLSLSPGERATLSCRSSKSLQNVNGNTYLYWFQQKPGQSPQLLIYRMSNLNSGVPDRFSGSGSGTEFTLTISSLEPEDFAVYYCMQHLEYPITFGAGTKLEIKRTVAAPSVFIFPPSDEQLKSGTASVVCLLNNFYPREAKVQWKVDNALQSGNSQESVTEQDSKDSTYSLSSTLTLSKADYEKHKVYACEVTHQGLSSPVTKSFNRGEC"
